Key:
HLA-B*40:01 = assay: IEDB peptide-MHC binding, purified MHC/direct/fluorescence; filed as Kd, often an IC50 or EC50 that approximates it; ≥ and ≤ were set here for values at or beyond the usual limits of such assays; conditions: source organism: Influenza A virus (A/turkey/Minnesota/511/1978(H9N2))
HLA-B*07:02 = assay: as above; conditions: source organism: Influenza A virus (A/turkey/Minnesota/511/1978(H9N2))
HLA-A*69:01 [1] = assay: as above; conditions: source organism: Influenza A virus (A/turkey/Minnesota/511/1978(H9N2))
HLA-A*24:02 = assay: as above; conditions: source organism: Influenza A virus (A/turkey/Minnesota/511/1978(H9N2))
HLA-B*08:01 = assay: as above; conditions: source organism: Influenza A virus (A/turkey/Minnesota/511/1978(H9N2))
HLA-B*27:05 = assay: as above; conditions: source organism: Influenza A virus (A/turkey/Minnesota/511/1978(H9N2))
HLA-A*11:01 = assay: as above; conditions: source organism: Influenza A virus (A/turkey/Minnesota/511/1978(H9N2))
HLA-A*03:01 [2] = assay: as above; conditions: source organism: Influenza A virus (A/turkey/Minnesota/511/1978(H9N2))
HLA-B*58:01 = assay: as above; conditions: source organism: Influenza A virus (A/turkey/Minnesota/511/1978(H9N2))
HLA-B*15:01 [3] = assay: as above; conditions: source organism: Influenza A virus (A/Puerto Rico/8/34/Mount Sinai(H1N1))
HLA-A*02:01 [4] = assay: as above; conditions: source organism: Influenza A virus (A/turkey/Minnesota/511/1978(H9N2))
HLA-B*44:02 = assay: as above; conditions: source organism: Influenza A virus (A/turkey/Minnesota/511/1978(H9N2))
HLA-A*31:01 = assay: as above; conditions: source organism: Influenza A virus (A/turkey/Minnesota/511/1978(H9N2))
HLA-A*01:01 = assay: as above; conditions: source organism: Influenza A virus (A/turkey/Minnesota/511/1978(H9N2))
HLA-A*26:01 [5] = assay: as above; conditions: source organism: Influenza A virus (A/shorebird/Delaware/141/2002(H9N9))
HLA-A*02:03 = assay: IEDB peptide-MHC binding, purified MHC/competitive/fluorescence; filed as Kd, often an IC50 or EC50 that approximates it; ≥ and ≤ were set here for values at or beyond the usual limits of such assays; conditions: source organism: Giardia lamblia ATCC 50803
HLA-A*23:01 = assay: as above; conditions: source organism: Giardia lamblia ATCC 50803
HLA-A*02:12 = assay: as above; conditions: source organism: Giardia lamblia ATCC 50803
HLA-A*69:01 [6] = assay: as above; conditions: source organism: Giardia lamblia ATCC 50803
HLA-A*68:02 = assay: as above; conditions: source organism: Giardia lamblia ATCC 50803
HLA-B*57:01 = assay: as above; conditions: source organism: Giardia lamblia ATCC 50803
HLA-B*46:01 = assay: as above; conditions: source organism: Giardia lamblia ATCC 50803
HLA-B*39:01 = assay: as above; conditions: source organism: Giardia lamblia ATCC 50803
HLA-A*03:01 [7] = assay: as above; conditions: source organism: Giardia lamblia ATCC 50803
HLA-A*02:11 = assay: as above; conditions: source organism: Giardia lamblia ATCC 50803
HLA-A*02:19 = assay: as above; conditions: source organism: Giardia lamblia ATCC 50803
HLA-A*24:03 = assay: as above; conditions: source organism: Giardia lamblia ATCC 50803
HLA-B*15:01 [8] = assay: as above; conditions: source organism: Giardia lamblia ATCC 50803
HLA-A*02:01 [9] = assay: as above; conditions: source organism: Giardia lamblia ATCC 50803
HLA-B*27:03 = assay: as above; conditions: source organism: Giardia lamblia ATCC 50803
HLA-B*15:17 = assay: as above; conditions: source organism: Giardia lamblia ATCC 50803
HLA-A*26:01 [10] = assay: as above; conditions: source organism: Giardia lamblia ATCC 50803
HLA-B*51:01 = assay: as above; conditions: source organism: Giardia lamblia ATCC 50803
HLA-A*29:02 = assay: as above; conditions: source organism: Giardia lamblia ATCC 50803
HLA-B*18:01 = assay: as above; conditions: source organism: Giardia lamblia ATCC 50803

DLLENLQAY was tested, and the Kd (HLA-B*40:01) was ≥ 20 µM, the Kd (HLA-B*07:02) was ≥ 20 µM and the Kd (HLA-A*69:01 [1]) was ≥ 20 µM. For the same sequence, the Kd (HLA-A*24:02) was ≥ 20 µM, the Kd (HLA-B*08:01) was ≥ 20 µM and the Kd (HLA-B*27:05) was ≥ 20 µM. For the same sequence, the Kd (HLA-A*11:01) was ≥ 20 µM, the Kd (HLA-A*03:01 [2]) was ≥ 20 µM and the Kd (HLA-B*58:01) was ≥ 20 µM. For the same sequence, the Kd (HLA-B*15:01 [3]) was 2.69 µM, the Kd (HLA-A*02:01 [4]) was ≥ 20 µM and the Kd (HLA-B*44:02) was ≥ 20 µM. For the same sequence, the Kd (HLA-A*31:01) was ≥ 20 µM, the Kd (HLA-A*01:01) was ≥ 20 µM and the Kd (HLA-A*26:01 [5]) was 0.115 µM.
With LLDDGWAGE the Kd (HLA-A*02:03) was ≥ 20 µM, the Kd (HLA-A*23:01) was ≥ 20 µM and the Kd (HLA-A*02:12) was 6 µM. For the same sequence, the Kd (HLA-A*69:01 [6]) was ≥ 20 µM, the Kd (HLA-A*68:02) was ≥ 20 µM and the Kd (HLA-B*57:01) was ≥ 20 µM. The Kd (HLA-B*46:01) was ≥ 20 µM, the Kd (HLA-B*39:01) was ≥ 20 µM and the Kd (HLA-A*03:01 [7]) was ≥ 20 µM. For the same sequence, the Kd (HLA-A*02:11) was ≥ 20 µM, the Kd (HLA-A*02:19) was ≥ 20 µM and the Kd (HLA-A*24:03) was ≥ 20 µM. For the same sequence, the Kd (HLA-B*15:01 [8]) was ≥ 20 µM, the Kd (HLA-A*02:01 [9]) was ≥ 20 µM and the Kd (HLA-B*27:03) was ≥ 20 µM. For the same sequence, the Kd (HLA-B*15:17) was ≥ 20 µM, the Kd (HLA-A*26:01 [10]) was ≥ 20 µM and the Kd (HLA-B*51:01) was ≥ 20 µM. The Kd (HLA-A*29:02) was ≥ 20 µM and the Kd (HLA-B*18:01) was ≥ 20 µM.

Reference: the Immune Epitope Database (IEDB)
